In patent US20250027068:
Substitutions are numbered along the chain they refer to.

B1: PRT-152 (protein)
chain: MANQEIRYSEVTPYHVTSVWTKGVTPPANFTQGEDVFHAPYVANQGWYDITKTFNGKDDLLCGAATAGNMLHWWFDQNKTQIERYLKKHPEKQKINFNGEQMFDVKEAIDTKNHQLDSKLFEYFKEKAFPYLSTKHLGVFPDHVIDMFINGYRLSLTNHGPTPVKEGSKDPRGGIFDAVFTRGDQSKLLTSRHDFKEKNLKEISDLIKKELTEGKALGLSHTYANVRINHVINLWGADFDSNGNLKAIYVTDSDSNASIGMKKYFVGVNSAGKVAISAKEIKEDNIGAQVLGLFTLSTGKDSWEKTN
B2: PRT-155 (protein)
chain: B1 chain with K22D, K79S, R84A, D301K
B3: PRT-153 (protein)
chain: B1 chain with E304K
B4: PRT-154 (protein)
chain: B1 chain with R84A, D301K
B5: PRT-13 (protein)
chain: MANQEIRYSEETPYHVTSVWTKGVTPPANFTQGEDVFHAPYKANQGWYDITKTFNGKDDLLCGAATAGNMLHWWFDQNKDQIEAYLKEHPEKQKINFNGEQMFDVKEAIDTKDDQTNSKLFEYFKEKAFPYLSTKHLGVFPDHVLDMFINGYRLSLTNHGPTPVKEGSKDPRGGIFDAVFTRGDQSKLLTSRHDFKEKTLKEISDLIKQELTEGKALALSHTYANVRINHVINLWGADFDSNGNLEAIYVTDSDSNASIGMKKYFVGVNSAGKVAISAKEIEDDNIGAQVLGLFTLSTGQDIWNQTN
B6: PRT-150 (protein)
chain: MANQEIRYSEVTPYHVTSVWTKGVTPPANFTQGEDVFHAPYVANQGWYDITKTFNGKDDLLCGAATAGNMLHWWFDQNKDQIKRYLEEHPEKQKINFNGEQMFDVKEAIDTKNHQLDSKLFEYFKEKAFPYLSTKHLGVFPDHVIDMFINGYRLSLTNHGPTPVKRQEKDPRGGIFDAVFGRGDQTKLLTSRHDFKEKNLKEISDLIKKELTEGKALGLSHTYANVRINHVINLWGADFDSNGNLKAIYVTDSDSNASIGMKKYFVGVNSAGKVAISAKEIKEDNIGAQVLGLFTLSTGQKSWNKTN
B7: PRT-151 (protein)
chain: B6 chain with E91D, E168T, Q185S
B8: PRT-156 (protein)
chain: B6 chain with A28T, N29D, V42K, R166E, Q167G, E168S, G181T, T186S, K301D, K305Q

Target: pooled human IgG

| Protein | Enzyme Activity Endpoint Assay (purified): Fab'2 [ng/µL] | Enzyme Activity Endpoint Assay (purified): Fc [ng/µL] | Enzyme Activity Endpoint Assay (purified): IgG [ng/µL] | Enzyme Activity Endpoint Assay (purified): scIgG [ng/µL] | Enzyme Activity Endpoint Assay: Fab′2 [ng/µL] | Enzyme Activity Endpoint Assay: Fc [ng/µL] | Enzyme Activity Endpoint Assay: IgG [ng/µL] | Enzyme Activity Endpoint Assay: scIgG [ng/µL] |
| --- | --- | --- | --- | --- | --- | --- | --- | --- |
| B1 | 614 | 158 | 0 | 0 | – | – | – | – |
| B2 | 751 | 197 | 0 | 18 | – | – | – | – |
| B3 | 619 | 190 | 0 | 0 | – | – | – | – |
| B4 | 733 | 191 | 0 | 0 | – | – | – | – |
| B5 | – | – | – | – | 2 | 74 | 12 | 66 |
| B6 | 612 | 161 | 0 | 0 | – | – | – | – |
| B7 | 521 | 137 | 0 | 0 | – | – | – | – |
| B8 | 772 | 205 | 0 | 0 | – | – | – | – |
